According to patent US20230183793:
Read-outs that look alike come from different tables or passages of the source.

How the values were obtained:
[1] = target: T1, Dcm N436K (Escherichia coli) (UniProt P0AED9); assay: cell_activity; conditions: CCWGG sites carboxymethylated; also makes 5mC
T1 sequence: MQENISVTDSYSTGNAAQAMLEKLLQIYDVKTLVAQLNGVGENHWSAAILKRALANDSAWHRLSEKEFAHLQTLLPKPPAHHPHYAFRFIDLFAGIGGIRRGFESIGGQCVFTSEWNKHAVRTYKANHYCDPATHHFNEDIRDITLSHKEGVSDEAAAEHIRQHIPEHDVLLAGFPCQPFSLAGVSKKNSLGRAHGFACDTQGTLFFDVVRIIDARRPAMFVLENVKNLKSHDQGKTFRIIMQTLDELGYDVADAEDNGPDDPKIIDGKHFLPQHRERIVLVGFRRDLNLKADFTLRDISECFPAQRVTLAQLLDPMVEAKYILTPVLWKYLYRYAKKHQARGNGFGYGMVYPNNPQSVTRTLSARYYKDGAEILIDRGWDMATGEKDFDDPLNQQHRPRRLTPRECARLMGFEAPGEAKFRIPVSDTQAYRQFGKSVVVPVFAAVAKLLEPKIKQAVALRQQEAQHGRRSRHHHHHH

[2] = system: M.MpeI N374K (Mycoplasma penetrans); conditions: 5mC on one strand of CpG; CxSAM preferred over SAM 1.3-fold; HpaII protection assay
[3] = system: M.MpeI N374K (Mycoplasma penetrans); conditions: CpGs converted to 5cxmC with CxSAM; ~60% 5mC with SAM; bisulfite sequencing
[4] = system: M.MpeI N374K (Mycoplasma penetrans); conditions: CpGs modified with SAM or CxSAM, bisulfite sequencing
[5] = system: M.MpeI WT K374N (reversion to wild type) (Mycoplasma penetrans); conditions: CpGs modified with SAM; no transfer with CxSAM

## E. coli genomic DNA (dam-/dcm-)
[1]
  activity: > 1.5%

## hemimethylated CpG fluorophore-labelled oligonucleotide
[2]
  binding signal: 1.3 fold

## lambda phage genomic DNA, unmethylated
[3]
  activity: 50%

## pUC19 plasmid DNA
[4]
  activity: > 70%
[5]
  activity: 100%
